Measured values published in paper PMC12609080, “Substrate recognition by human separase” (Science Advances, 2025).

Legend:
Test in all cases: fluorescence polarisation; FlAsH-EDT2-labelled SCC1 fragment as probe, inactive separase added; 25 mM Hepes (pH 8.0), 100 mM NaCl, bovine serum albumin (0.1 mg/ml), 0.01% NP-40; room temperature (25°C); One Site-Total nonlinear fit
[1] = target: MBP-SCC1^100–320 with C-terminal tetracysteine motif, unphosphorylated (human) (UniProt O60216)
[2] = target: phosphorylated SCC1 site 1 (100 to 320) (human) (UniProt O60216)
[3] = target: T1, inactive apo-separase (separase^C2029S) (human, UniProt Q14674 1-2120, C2029S); details: both partners purified
T1 construct: human separase (2120 amino acids), amino acids 1 to 2120, catalytic cysteine replaced with serine; Gene-optimised synthetic cDNA in the pF1 vector; also called apo-separase^C2029S; source: Sf9 (baculovirus), purified (Strep-Tactin, heparin, Superose 6)
T1 sequence (Q14674 whole entry C2029S, the tested form may be a part): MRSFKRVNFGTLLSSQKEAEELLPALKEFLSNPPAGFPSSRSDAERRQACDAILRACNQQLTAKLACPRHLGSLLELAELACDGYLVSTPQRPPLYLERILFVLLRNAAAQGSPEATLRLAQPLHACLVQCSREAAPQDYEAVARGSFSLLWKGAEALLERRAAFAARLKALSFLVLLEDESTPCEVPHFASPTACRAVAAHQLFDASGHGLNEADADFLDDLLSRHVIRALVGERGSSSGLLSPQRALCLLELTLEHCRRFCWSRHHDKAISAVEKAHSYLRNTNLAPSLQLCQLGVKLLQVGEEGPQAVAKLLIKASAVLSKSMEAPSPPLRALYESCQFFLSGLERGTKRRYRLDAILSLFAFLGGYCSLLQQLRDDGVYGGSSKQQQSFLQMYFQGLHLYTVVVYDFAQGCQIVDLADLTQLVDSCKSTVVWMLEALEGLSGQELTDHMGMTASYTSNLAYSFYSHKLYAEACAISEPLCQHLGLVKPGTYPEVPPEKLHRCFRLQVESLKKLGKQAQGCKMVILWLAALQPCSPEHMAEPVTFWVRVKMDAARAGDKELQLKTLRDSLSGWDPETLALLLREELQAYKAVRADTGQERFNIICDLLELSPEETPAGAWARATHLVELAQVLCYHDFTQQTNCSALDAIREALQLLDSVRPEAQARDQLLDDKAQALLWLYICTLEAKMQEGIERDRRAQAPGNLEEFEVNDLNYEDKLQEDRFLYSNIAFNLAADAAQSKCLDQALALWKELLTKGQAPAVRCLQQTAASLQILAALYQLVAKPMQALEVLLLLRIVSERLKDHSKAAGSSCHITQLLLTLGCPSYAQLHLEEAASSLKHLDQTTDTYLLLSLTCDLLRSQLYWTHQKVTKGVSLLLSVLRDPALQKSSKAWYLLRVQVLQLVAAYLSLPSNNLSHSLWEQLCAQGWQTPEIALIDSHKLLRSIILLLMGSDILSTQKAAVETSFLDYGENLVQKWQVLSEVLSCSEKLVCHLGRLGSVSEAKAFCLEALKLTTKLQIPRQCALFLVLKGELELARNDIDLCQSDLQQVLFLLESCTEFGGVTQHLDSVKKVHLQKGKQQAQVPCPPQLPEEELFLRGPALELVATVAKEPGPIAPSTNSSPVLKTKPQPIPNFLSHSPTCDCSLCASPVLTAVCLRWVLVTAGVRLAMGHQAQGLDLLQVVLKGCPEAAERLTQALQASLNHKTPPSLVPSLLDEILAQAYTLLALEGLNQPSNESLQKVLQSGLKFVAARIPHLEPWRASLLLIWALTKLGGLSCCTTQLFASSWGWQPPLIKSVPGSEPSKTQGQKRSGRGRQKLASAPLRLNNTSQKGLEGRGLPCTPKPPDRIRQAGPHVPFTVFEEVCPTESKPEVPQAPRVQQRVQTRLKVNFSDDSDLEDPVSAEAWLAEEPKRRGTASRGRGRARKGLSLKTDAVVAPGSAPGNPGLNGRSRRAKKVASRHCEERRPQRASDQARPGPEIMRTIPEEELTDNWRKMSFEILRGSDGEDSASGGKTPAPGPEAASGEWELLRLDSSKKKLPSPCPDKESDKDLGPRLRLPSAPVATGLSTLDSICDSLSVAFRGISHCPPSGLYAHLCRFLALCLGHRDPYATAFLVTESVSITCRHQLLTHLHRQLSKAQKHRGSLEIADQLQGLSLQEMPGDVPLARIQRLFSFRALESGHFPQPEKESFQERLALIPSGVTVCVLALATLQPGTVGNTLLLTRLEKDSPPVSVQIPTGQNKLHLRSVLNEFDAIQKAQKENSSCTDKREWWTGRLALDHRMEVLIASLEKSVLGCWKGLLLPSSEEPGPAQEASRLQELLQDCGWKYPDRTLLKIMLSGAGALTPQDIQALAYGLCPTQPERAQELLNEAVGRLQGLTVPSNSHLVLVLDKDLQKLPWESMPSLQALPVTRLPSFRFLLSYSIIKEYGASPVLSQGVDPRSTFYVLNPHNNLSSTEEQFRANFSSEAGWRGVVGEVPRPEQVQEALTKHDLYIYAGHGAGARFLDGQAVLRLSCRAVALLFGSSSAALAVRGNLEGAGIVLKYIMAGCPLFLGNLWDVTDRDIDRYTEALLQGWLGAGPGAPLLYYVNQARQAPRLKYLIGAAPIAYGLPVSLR

MBP-SCC1^100–320 with C-terminal tetracysteine motif, unphosphorylated (human), sequence (O60216 100-320): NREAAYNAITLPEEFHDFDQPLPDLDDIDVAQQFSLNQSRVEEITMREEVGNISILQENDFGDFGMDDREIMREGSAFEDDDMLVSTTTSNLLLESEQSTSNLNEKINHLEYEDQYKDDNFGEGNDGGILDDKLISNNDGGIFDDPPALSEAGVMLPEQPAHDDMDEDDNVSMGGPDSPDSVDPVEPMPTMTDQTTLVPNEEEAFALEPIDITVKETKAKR
phosphorylated SCC1 site 1 (100 to 320) (human), sequence (O60216 100-320): as above

fold lower Kd than the SCC1 350-550 construct [1] | fold lower Kd than unphosphorylated SCC1 100-320 [2] | binding result [3] | Molecule
3 fold | 2 fold | – | inactive apo-separase (separase^C2029S), Q14674 1-2120
– | – | binds | MBP-SCC1^350–550 with C-terminal tetracysteine motif, unphosphorylated (domain or fragment, human, UniProt O60216 350-550, looked up, FlAsH-EDT2 fluorescent dye on the C-terminal tetracysteine motif, human SCC1/RAD21, amino acids 350 to 550 (holds cleavage site 2, R427); pETM41 vector; also called SCC1 site 2 (amino acids 350 to 550); source: E. coli BL21, purified (HiTrap MBP, Superdex 200); not shown: 6xHis-MBP, N-terminal, kept) TLDLAPPTKKLMMWKETGGVEKLFSLPAQPLWNNRLLKLFTRCLTPLVPEDLRKRRKGGEADNLDEFLKEFENPEVPREDQQQQHQQRDVIDEPIIEEPSRLQESVMEASRTNIDESAMPPPPPQGVKRKAGQIDPEPVMPPQQVEQMEIPPVELPPEEPPNICQLIPELELLPEKEKEKEKEKEDDEEEEDEDASGGDQD
